According to the supplement of paper PMC10126150:
± gives the standard deviation of the averaged measurements.

System: ATP
Test: switch fluorescence ratio, 500 uM ATP over buffer (Cy3 cluster intensity, sum of 5 cycles each) (fold (ratio)); higher = stronger signal-on switching upon ATP binding; sequences stand for … in TCGTCGGCAGCGTCAGATGTGTATAAGAGACAGTTTTTTTTTTTTTTTTTTTTTTTTT…TC
Conditions: aptamer strand: ATP DNA aptamer (quencher-CACCTGGGGGAGTATTGCGGAGGAAGG + anchor), 100 nM annealed; ATP concentration: 500 uM
Method in brief: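 Five buffer/ATP imaging cycles were run on Cy3-labelled switching-strand clusters on a modified Illumina MiSeq flow-cell, with NaOH stripping and re-annealing between cycles. In each cycle, clusters annealed to 100 nM quencher-labelled ATP aptamer were imaged in selection buffer, then after 15 min with 500 uM ATP at 22 °C. Per cluster, the fluorescence ratio is summed target-cycle over summed buffer-cycle Cy3 intensity, averaged per switch-domain sequence. Only clusters within 100-1000 RFU were kept.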
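Also: ATP exposure 15 min at 22 °C before imaging.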

Sequence | switch fluorescence ratio
GGAATCTTTT | 1.08 ± 0.085
GGAATGAGGA | 0.99242 ± 0.0004
GGAATGCTAT | 0.996 ± 0.013
GGAATGGCTT | 0.999 ± 0.0091
GGAATTGGAT | 1 ± 0.025
GGAATTTAAT | 0.998 ± 0.0014
GGACACAGGC | 1.01 ± 0.023
GGACAGCGCG | 1 ± 0.07
GGACATATTA | 1 ± 0.028
GGACATTGG | 1.03 ± 0.02
GGACCAAGTG | 1.03 ± 0.025
GGACCCGCCG | 1.025 ± 0.0016
GGACCCTAAC | 1.08 ± 0.062
GGACCGGGGT | 0.966 ± 0.034
GGACGAAGGG | 1.09 ± 0.018
GGACGATTTG | 1.05 ± 0.054
GGACGCATAA | 3.51 ± 1.3
GGACGGGAAC | 1.13 ± 0.055
GGACGGGGGG | 1.01 ± 0.056
GGACGGGGTC | 1.01 ± 0.013
GGACGGGGTT | 0.97 ± 0.019
GGACGTCTGA | 1.02 ± 0.041
GGACGTTGGT | 1.02 ± 0.022
GGACTAGCTT | 1.03 ± 0.032
GGACTATGCT | 0.962 ± 0.011
GGACTATGGT | 0.981 ± 0.014

Sequence | switch fluorescence ratio
GGACTCTGGG | 0.966 ± 0.058
GGACTTAGAT | 1.02 ± 0.039
GGACTTCTTG | 0.932 ± 0.045
GGACTTTCGT | 0.993 ± 0.015
GGACTTTTCA | 0.96 ± 0.014
GGAGAAGAGA | 0.9875 ± 0.004
GGAGAAGGGT | 0.9967 ± 0.0047
GGAGACCTTT | 1.03 ± 0.041
GGAGACGGTT | 1 ± 0.051
GGAGACGTTA | 1.02 ± 0.052
GGAGAGCGCG | 0.976 ± 0.067
GGAGAGGACG | 1.07 ± 0.09
GGAGAGGGCT | 1.01 ± 0.024
GGAGAGGGGC | 0.996 ± 0.091
GGAGAGGGGG | 0.982 ± 0.027
GGAGAGGTTT | 1.05 ± 0.059
GGAGATAGGT | 1.04 ± 0.038
GGAGCCCGGT | 1.01 ± 0.029
GGAGCCTGGT | 1.01 ± 0.022
GGAGCGGGGG | 1.02 ± 0.014
GGAGCTTTCA | 1.05 ± 0.088
GGAGGAAAGT | 1 ± 0.029
GGAGGAGAGG | 1.01 ± 0.04
GGAGGAGCTG | 0.95 ± 0.042
GGAGGAGTTT | 1.65 ± 0.92
GGAGGCCATG | 0.967 ± 0.01

Sequence | switch fluorescence ratio
GGAGGCGGGG | 1.08 ± 0.18
GGAGGGACGG | 1.029 ± 0.009
GGAGGGAGGG | 1.02 ± 0.059
GGAGGGCAGG | 0.9882 ± 0.0096
GGAGGGCCTG | 0.986 ± 0.013
GGAGGGGAAG | 1.07 ± 0.14
GGAGGGGAGT | 0.999 ± 0.014
GGAGGGGATC | 0.998 ± 0.022
GGAGGGGGGA | 1.09 ± 0.24
GGAGGGTGTC | 0.988 ± 0.044
GGAGGTCTAC | 1.03 ± 0.014
GGAGTAGCAG | 1.02 ± 0.074
GGAGTCATGG | 1.045 ± 0.0073
GGAGTCCAGG | 1.15 ± 0.032
GGAGTCCGTT | 1.02 ± 0.046
GGAGTCGTTG | 0.968 ± 0.011
GGAGTCTTGT | 1.01 ± 0.03
GGAGTGATTT | 1 ± 0.017
GGAGTGGGAT | 1.03 ± 0.034
GGAGTGTTGG | 1.002 ± 0.0051
GGAGTTAGGC | 1 ± 0.04
GGAGTTCAGG | 0.9905 ± 0.0024
GGAGTTTAAA | 0.999 ± 0.043
GGATAAAAAT | 1.02 ± 0.025
GGATAAATGC | 1.02 ± 0.043
GGATAACGGG | 1.02 ± 0.023

Sequence | switch fluorescence ratio
GGATAAGGAG | 0.99 ± 0.051
GGATACGGTG | 1.08 ± 0.061
GGATACGTTG | 1.02 ± 0.052
GGATAGATGG | 0.986 ± 0.02
GGATAGGATT | 1.025 ± 0.0054
GGATAGTCGG | 1 ± 0.028
GGATATAATG | 0.985 ± 0.019
GGATATAGCC | 0.994 ± 0.013
GGATATGATC | 1.03 ± 0.031
GGATCCGTTG | 0.978 ± 0.021
GGATCGTCGG | 0.96 ± 0.019
GGATCGTTCC | 1.1 ± 0.017
GGATCTTAGT | 0.996 ± 0.013
GGATCTTTAT | 0.9932 ± 0.0096
GGATGAGTGT | 0.982 ± 0.038
GGATGCAATG | 1.16 ± 0.025
GGATGCATAT | 0.9894 ± 0.0044
GGATGGCGGT | 0.9846 ± 0.0069
GGATGGGAGG | 1.046 ± 0.0092
GGATGGGGCT | 1.02 ± 0.03
GGATGGGGGA | 1.02 ± 0.03
GGATGGGTGC | 0.9939 ± 0.0091
GGATGGTTGG | 1.012 ± 0.0068
GGATGTATCT | 0.995 ± 0.012
GGATGTGCG | 0.961 ± 0.05
GGATGTTTTG | 1.03 ± 0.015

Sequence | switch fluorescence ratio
GGATTAAAGG | 1.03 ± 0.013
GGATTAAATT | 0.9996 ± 0.0019
GGATTAACTA | 0.9887 ± 0.0061
GGATTAATG | 1.1 ± 0.12
GGATTAGGGA | 1.01 ± 0.03
GGATTCATGG | 1.01 ± 0.021
GGATTCCGGG | 0.988 ± 0.027
GGATTTAAAT | 0.976 ± 0.042
GGATTTATTG | 1.02 ± 0.022
GGATTTGAGG | 1 ± 0.026
GGATTTGGAG | 0.993 ± 0.024
GGATTTGGGG | 0.9878 ± 0.0073
GGATTTGGTA | 0.978 ± 0.032
GGATTTGTGA | 1.02 ± 0.022
GGCAAAGCGT | 1.03 ± 0.025
GGCAAAGGGG | 1.01 ± 0.041
GGCAACCATA | 1.02 ± 0.032
GGCAACGAAA | 1.039 ± 0.0099
GGCAATATTT | 1.2 ± 0.061
GGCAATTGTA | 1.03 ± 0.027
GGCACAGATG | 1.02 ± 0.015
GGCAGAAATG | 0.994 ± 0.011
GGCAGAATAA | 1.05 ± 0.13
GGCAGAGATC | 1.06 ± 0.077
GGCAGATGAC | 0.9674 ± 0.0031
GGCAGCCGGC | 1.03 ± 0.041

Sequence | switch fluorescence ratio
GGCAGCGTGG | 0.994 ± 0.041
GGCAGCTTTT | 1.05 ± 0.088
GGCAGGAAAG | 1 ± 0.011
GGCAGGCGGA | 1 ± 0.012
GGCAGGGCTG | 0.974 ± 0.051
GGCAGGGGCT | 1 ± 0.044
GGCAGTCCGG | 0.9876 ± 0.0024
GGCAGTTTGG | 1.01 ± 0.023
GGCATAAGTA | 1.008 ± 0.0054
GGCATAGCCC | 0.954 ± 0.024
GGCATATTGT | 0.985 ± 0.025
GGCATCGGTT | 0.977 ± 0.027
GGCATCGTAG | 0.998 ± 0.021
GGCATGAGGT | 1 ± 0.016
GGCATTAGGT | 0.977 ± 0.042
GGCATTTAAA | 0.983 ± 0.024
GGCATTTTAT | 1.01 ± 0.061
GGCCAATAAT | 0.991 ± 0.016
GGCCAGGGTG | 2.29 ± 0.07
GGCCCCCGGT | 1.1 ± 0.068
GGCCCCGGAT | 1 ± 0.07
GGCCCGATTT | 1.01 ± 0.024
GGCCCGCGTT | 1.11 ± 0.065
